System: Escherichia coli TOP10
Assay: shrunken log2 fold change of peptide-encoding DNA abundance (4.5 h post-induction vs induction); higher = less antimicrobial activity (less host growth inhibition)
Details: time post-induction: 4.5 h; library: site-saturation at positions 5, 18, 19, 20
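Note: peptides expressed intracellularly from a pBAD plasmid library in pooled LB shake-flask culture, induced with 0.3% L-arabinose, DNA abundance read by NGS, three biological replicates, DESeq2 with apeglm shrinkage.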

Row | Sequence | shrunken log2 fold change
1 | RRIRKRPPRLPRPRPRPRPGPRP | 0.721
2 | RRIRKRPPRLPRPRPRPRPIPRP | 0.824
3 | RRIRKRPPRLPRPRPRPRQAPRP | 1.79
4 | RRIRKRPPRLPRPRPRPRRAPRP | 0.9
5 | RRIRKRPPRLPRPRPRPRSCPRP | 0.239
6 | RRIRKRPPRLPRPRPRPRSVPRP | 0.402
7 | RRIRKRPPRLPRPRPRPRTFPRP | 0.243
8 | RRIRKRPPRLPRPRPRPRTIPRP | 0.262
9 | RRIRKRPPRLPRPRPRPRTWPRP | 0.124
10 | RRIRKRPPRLPRPRPRPRVVPRP | 0.143
11 | RRIRKRPPRLPRPRPRPRVWPRP | 0.809
12 | RRIRKRPPRLPRPRPRPRWVPRP | 0.642
13 | RRIRKRPPRLPRPRPRPRYPPRP | 0.122
14 | RRIRKRPPRLPRPRPRPSACPRP | -0.0843
15 | RRIRKRPPRLPRPRPRPSAKPRP | 0.397
16 | RRIRKRPPRLPRPRPRPSARPRP | 0.468
17 | RRIRKRPPRLPRPRPRPSCCPRP | 0.269
18 | RRIRKRPPRLPRPRPRPSECPRP | -0.0384
19 | RRIRKRPPRLPRPRPRPSFIPRP | -0.262
20 | RRIRKRPPRLPRPRPRPSHCPRP | -0.578
21 | RRIRKRPPRLPRPRPRPSHYPRP | -0.248
22 | RRIRKRPPRLPRPRPRPSIAPRP | 0.00111
23 | RRIRKRPPRLPRPRPRPSKGPRP | -0.0301
24 | RRIRKRPPRLPRPRPRPSLPPRP | -0.0153
25 | RRIRKRPPRLPRPRPRPSLQPRP | 0.447

Row | Sequence | shrunken log2 fold change
26 | RRIRKRPPRLPRPRPRPSMRPRP | 0.915
27 | RRIRKRPPRLPRPRPRPSMSPRP | 0.14
28 | RRIRKRPPRLPRPRPRPSPWPRP | 0.141
29 | RRIRKRPPRLPRPRPRPSQLPRP | 0.141
30 | RRIRKRPPRLPRPRPRPSRIPRP | 0.156
31 | RRIRKRPPRLPRPRPRPSRRPRP | 0.337
32 | RRIRKRPPRLPRPRPRPSRWPRP | 0.639
33 | RRIRKRPPRLPRPRPRPSSEPRP | 0.2
34 | RRIRKRPPRLPRPRPRPSSHPRP | -0.163
35 | RRIRKRPPRLPRPRPRPSSRPRP | -0.038
36 | RRIRKRPPRLPRPRPRPSTVPRP | -0.159
37 | RRIRKRPPRLPRPRPRPSVQPRP | 0.0869
38 | RRIRKRPPRLPRPRPRPSVTPRP | -0.0473
39 | RRIRKRPPRLPRPRPRPSWFPRP | -0.168
40 | RRIRKRPPRLPRPRPRPSWRPRP | 0.211
41 | RRIRKRPPRLPRPRPRPTAHPRP | 0.513
42 | RRIRKRPPRLPRPRPRPTCFPRP | 0.259
43 | RRIRKRPPRLPRPRPRPTCPPRP | 0.0404
44 | RRIRKRPPRLPRPRPRPTDEPRP | 0.819
45 | RRIRKRPPRLPRPRPRPTEGPRP | 0.869
46 | RRIRKRPPRLPRPRPRPTEKPRP | 0.247
47 | RRIRKRPPRLPRPRPRPTFIPRP | -0.0546
48 | RRIRKRPPRLPRPRPRPTFTPRP | 0.186
49 | RRIRKRPPRLPRPRPRPTFYPRP | 0.11
50 | RRIRKRPPRLPRPRPRPTGKPRP | 0.905

Row | Sequence | shrunken log2 fold change
51 | RRIRKRPPRLPRPRPRPTHNPRP | 0.299
52 | RRIRKRPPRLPRPRPRPTHSPRP | 0.168
53 | RRIRKRPPRLPRPRPRPTIPPRP | 0.263
54 | RRIRKRPPRLPRPRPRPTLKPRP | 0.601
55 | RRIRKRPPRLPRPRPRPTLNPRP | 0.505
56 | RRIRKRPPRLPRPRPRPTLRPRP | 1.01
57 | RRIRKRPPRLPRPRPRPTMEPRP | 0.204
58 | RRIRKRPPRLPRPRPRPTMWPRP | 0.643
59 | RRIRKRPPRLPRPRPRPTNHPRP | -0.0148
60 | RRIRKRPPRLPRPRPRPTNIPRP | -0.188
61 | RRIRKRPPRLPRPRPRPTPVPRP | 0.756
62 | RRIRKRPPRLPRPRPRPTQQPRP | 1.35
63 | RRIRKRPPRLPRPRPRPTQRPRP | 1.13
64 | RRIRKRPPRLPRPRPRPTRFPRP | 0.436
65 | RRIRKRPPRLPRPRPRPTSHPRP | 0.37
66 | RRIRKRPPRLPRPRPRPTVSPRP | 0.099
67 | RRIRKRPPRLPRPRPRPTYYPRP | -0.442
68 | RRIRKRPPRLPRPRPRPVCVPRP | 0.573
69 | RRIRKRPPRLPRPRPRPVEAPRP | 0.657
70 | RRIRKRPPRLPRPRPRPVELPRP | 0.111
71 | RRIRKRPPRLPRPRPRPVGAPRP | 0.853
72 | RRIRKRPPRLPRPRPRPVGIPRP | 0.131
73 | RRIRKRPPRLPRPRPRPVGNPRP | 0.0255
74 | RRIRKRPPRLPRPRPRPVGVPRP | 0.515
75 | RRIRKRPPRLPRPRPRPVHFPRP | -0.0637

Row | Sequence | shrunken log2 fold change
76 | RRIRKRPPRLPRPRPRPVHWPRP | 0.621
77 | RRIRKRPPRLPRPRPRPVIIPRP | 0.0356
78 | RRIRKRPPRLPRPRPRPVINPRP | -0.0513
79 | RRIRKRPPRLPRPRPRPVIQPRP | -0.0501
80 | RRIRKRPPRLPRPRPRPVKKPRP | 0.505
81 | RRIRKRPPRLPRPRPRPVLSPRP | 0.3
82 | RRIRKRPPRLPRPRPRPVMLPRP | 0.109
83 | RRIRKRPPRLPRPRPRPVMTPRP | 0.0351
84 | RRIRKRPPRLPRPRPRPVNNPRP | -0.241
85 | RRIRKRPPRLPRPRPRPVNVPRP | 0.0147
86 | RRIRKRPPRLPRPRPRPVPDPRP | 0.418
87 | RRIRKRPPRLPRPRPRPVPHPRP | 0.189
88 | RRIRKRPPRLPRPRPRPVRHPRP | 0.0899
89 | RRIRKRPPRLPRPRPRPVTLPRP | 0.163
90 | RRIRKRPPRLPRPRPRPVVEPRP | 0.274
91 | RRIRKRPPRLPRPRPRPVVKPRP | -0.0849
92 | RRIRKRPPRLPRPRPRPVWVPRP | 0.15
93 | RRIRKRPPRLPRPRPRPVYEPRP | -0.115
94 | RRIRKRPPRLPRPRPRPWCFPRP | 0.164
95 | RRIRKRPPRLPRPRPRPWCMPRP | 0.183
96 | RRIRKRPPRLPRPRPRPWDKPRP | -0.0876
97 | RRIRKRPPRLPRPRPRPWDMPRP | 0.142
98 | RRIRKRPPRLPRPRPRPWIFPRP | 0.287
99 | RRIRKRPPRLPRPRPRPWISPRP | 0.0313
100 | RRIRKRPPRLPRPRPRPWIVPRP | -0.056

Row | Sequence | shrunken log2 fold change
101 | RRIRKRPPRLPRPRPRPWLCPRP | 0.466
102 | RRIRKRPPRLPRPRPRPWLPPRP | 0.0665
103 | RRIRKRPPRLPRPRPRPWMCPRP | -0.316
104 | RRIRKRPPRLPRPRPRPWMDPRP | 0.0169
105 | RRIRKRPPRLPRPRPRPWMNPRP | -0.00146
106 | RRIRKRPPRLPRPRPRPWNFPRP | -0.162
107 | RRIRKRPPRLPRPRPRPWNKPRP | -0.129
108 | RRIRKRPPRLPRPRPRPWNNPRP | 0.0165
109 | RRIRKRPPRLPRPRPRPWPLPRP | -0.0227
110 | RRIRKRPPRLPRPRPRPWPNPRP | 0.0221
111 | RRIRKRPPRLPRPRPRPWPVPRP | 0.47
112 | RRIRKRPPRLPRPRPRPWPWPRP | 0.847
113 | RRIRKRPPRLPRPRPRPWQSPRP | 0.0203
114 | RRIRKRPPRLPRPRPRPWQTPRP | 0.146
115 | RRIRKRPPRLPRPRPRPWRQPRP | 0.182
116 | RRIRKRPPRLPRPRPRPWSPPRP | 0.0668
117 | RRIRKRPPRLPRPRPRPWTAPRP | 0.00666
118 | RRIRKRPPRLPRPRPRPWTEPRP | -0.172
119 | RRIRKRPPRLPRPRPRPWVLPRP | 0.0941
120 | RRIRKRPPRLPRPRPRPWWIPRP | -0.0457
121 | RRIRKRPPRLPRPRPRPWWKPRP | -0.103
122 | RRIRKRPPRLPRPRPRPWWMPRP | 0.105
123 | RRIRKRPPRLPRPRPRPWWSPRP | -0.00415
124 | RRIRKRPPRLPRPRPRPWWWPRP | -0.0108
125 | RRIRKRPPRLPRPRPRPWYPPRP | 0.00168

Row | Sequence | shrunken log2 fold change
126 | RRIRKRPPRLPRPRPRPWYWPRP | -0.151
127 | RRIRKRPPRLPRPRPRPYAPPRP | -0.241
128 | RRIRKRPPRLPRPRPRPYCDPRP | 0.00748
129 | RRIRKRPPRLPRPRPRPYCNPRP | 0.068
130 | RRIRKRPPRLPRPRPRPYDSPRP | 0.0392
131 | RRIRKRPPRLPRPRPRPYEGPRP | -0.0017
132 | RRIRKRPPRLPRPRPRPYESPRP | 0.0419
133 | RRIRKRPPRLPRPRPRPYFGPRP | -0.711
134 | RRIRKRPPRLPRPRPRPYFKPRP | -0.382
135 | RRIRKRPPRLPRPRPRPYFTPRP | -0.0968
136 | RRIRKRPPRLPRPRPRPYGDPRP | -0.224
137 | RRIRKRPPRLPRPRPRPYITPRP | -0.548
138 | RRIRKRPPRLPRPRPRPYKTPRP | -0.227
139 | RRIRKRPPRLPRPRPRPYLGPRP | -0.0981
140 | RRIRKRPPRLPRPRPRPYLKPRP | -0.525
141 | RRIRKRPPRLPRPRPRPYMYPRP | -0.445
142 | RRIRKRPPRLPRPRPRPYPMPRP | -0.2
143 | RRIRKRPPRLPRPRPRPYPPPRP | -0.289
144 | RRIRKRPPRLPRPRPRPYPRPRP | -0.00783
145 | RRIRKRPPRLPRPRPRPYQQPRP | -0.00547
146 | RRIRKRPPRLPRPRPRPYRTPRP | -0.224
147 | RRIRKRPPRLPRPRPRPYSLPRP | -0.0434
148 | RRIRKRPPRLPRPRPRPYSWPRP | 0.0046
149 | RRIRKRPPRLPRPRPRPYTAPRP | -0.338
150 | RRIRKRPPRLPRPRPRPYTDPRP | -0.0224
